Laboratory results reported in paper PMC8232969 (Cell, 2021).

B1: DH1041 Fab (Fab, V domains shown)
VH: EVQLVESGGGLVQPGGSLRLSCAASGVTFSSYWMSWVRQAPGKGLEWVANIRQDGSEKYSVDSVKGRFTISRDNAKNSLYLQMNSLRAEDTAVYYCARARRADNSGYYGFHFDCWGQGTLVTVSS
VL: QSVLTQPPSVSGAPGQRVTISCTGSSSNIGAGYDVHWYQQLPGTAPKLLIYGNNNRPSGVPDRFSDSKSGTSASLAITRLQAEDEADYYCQSYDSSLSGWVFGGGTKLTVL
B2: DH1047 Fab (Fab, V domains shown)
VH: QVQLVQSGAEVKKPGASVQVSCQASANTFTNHYIHWVRQAPGQGLEWMGIIYPTGGNTIYAQGFQGRVTMTRDTSLNTIYLELSSLRSEDTAVYYCARDVRVDDSWSGYDLLSGGTYFDYWGQGTLVTVSS
VL: not shown

Target: SARS-CoV-2 Spike-2P (stabilized S ectodomain trimer) (SARS-CoV-2, UniProt P0DTC2)
Experiment: cryo-EM structure

| Binder | stoichiometry N [Fabs per S-2P trimer] |
| --- | --- |
| B1 | 3 |
| B2 | 3 |
